In patent publication US20180371461, “[…], NUCLEIC ACID MOLECULES, POLYNUCLEOTIDES, […] ANTIBODIES COMPOSITIONS FOR […] PRRS VIRUSES AND […] PRRS VIRUS INFECTION” (AEROVIRUS TECHNOLOGIES INC., published 2018):

T1: PRRSV type 1 (Lelystad) M-S-S-GP5 disulfide-linked heterodimer peptide complex (Porcine reproductive and respiratory …, UniProt Q04565;Q04569)
T1 chain 1: MGGLDDFCNDPIAAQ
T1 chain 2: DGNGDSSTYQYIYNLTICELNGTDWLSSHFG

T2: PRRSV type 2 M(1-16)-S-S-GP5(31-61) disulfide-linked heterodimer peptide complex (Porcine reproductive and respiratory …)
T2 chain 1: MGSSLDDFCHDSTAPQ
T2 chain 2: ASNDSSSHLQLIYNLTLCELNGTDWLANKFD


Legend:
[1] = system: PRRSV NVSL virion, M/GP5 surface complex (Porcine reproductive and respiratory syndrome virus type 2); assay: cell_activity; conditions: protection of MARC-145 cells, 500 pmole aptamer, MTT assay
[2] = system: PRRSV LHVA-93-3 virion, M/GP5 surface complex (Porcine reproductive and respiratory syndrome virus type 2); assay: cell_activity; conditions: protection of MARC-145 cells, 500 pmole aptamer, MTT assay; also reduces lung titre in swine
[3] = biological target: T1, PRRSV type 1 (Lelystad) M-S-S-GP5 …; assay: ELONA; type 1 complex; conditions: protein: synthetic
[4] = biological target: T2, PRRSV type 2 M(1-16)-S-S-GP5(31-61) …; assay: ELONA; streptavidin plate, PBS-T, 37 C; conditions: protein: synthetic, tags: His-labelled (Ni-NTA captured), synthetic glycosylated peptide complex, disulfide M Cys9-GP5 Cys48
[5] = label: biotin (reverse screening ELISA)

| Molecule | binding result [3] | other results |
| --- | --- | --- |
| GGGCGACCCTGAAGAGTTTGTAATCTGCGATTTTAAAGTTGAGTCGTCGCGAAACGGTGAAAGCCGTAGGTTGCCC [A505 (CoocSeq5)] | – | activity [1]: 70%; activity [2]: 60% |
| PEU-852 (ssDNA) DNA: GGGCGACCCTGAAGAGGACACTGCACGTACACAACGAGGATGAACACGAAACGGTGAAAGCCGTAGGTTGCCC | binds | – |
| A508 (CoocSeq8) (ssDNA) DNA: GGGCGACCCTGAAGAGACTGGTGAGTTAATGTTTTTTCTTAGCCTTGTATCGAAACGGTGAAAGCCGTAGGTTGCCC | – | binding result [4, 5]: binds |
| PEU-842 (ssDNA) DNA: GGGCGACCCTGAAGAGGACCAGAAGCACGGACCACACACAGCGTATCGAAACGGTGAAAGCCGTAGGTTGCCC | binds | – |
| A505 (CoocSeq5) (ssDNA) DNA: GGGCGACCCTGAAGAGTTTGTAATCTGCGATTTTAAAGTTGAGTCGTCGCGAAACGGTGAAAGCCGTAGGTTGCCC | – | binding result ([4]; label: 5' biotin (reverse screening ELISA)): binds |
| PEU-962 (ssDNA) DNA: GGGCGACCCTGAAGAGGATAGACAATAGCACACCACGCCCCTGCCACGAAACGGTGAAAGCCGTAGGTTGCCC | binds | – |
| PEU-424 (ssDNA) DNA: GGGCGACCCTGAAGAGGATGTTGATAGAGCGCCGACCACACACGCACGAAACGGTGAAAGCCGTAGGTTGCCC | binds | – |
| PEU-499 (ssDNA) DNA: GGGCGACCCTGAAGAGTACACACGGGACACACACACACTCACTAGACGAAACGGTGAAAGCCGTAGGTTGCCC | binds | – |
| A507 (CoocSeq7_HistoSeq14) (ssDNA) DNA: GGGCGACCCTGAAGAGGTTTGCATATTATAGTTATAGGAGGTGTGTAATGGACGAAACGGTGAAAGCCGTAGGTTGCCC | – | binding result [4, 5]: binds |
